Legend:
116 = molecular target: T1, 116; assay: ELISA; design: key to grade: 0 = <0.5 OD, 1 = 0.5-1.0 OD, 4 = 1-4 OD
T1 construct: fully human Id protein; also called PIN116
Text: (§1) Before specificity screening, all of the clonal immunogen-positive hybridoma supernatants were re-screened on the immunogen, a non-family member Id protein, and KLH, if animals were immunized with Id protein that has been conjugated KLH. As described above, this screen identifies HC-specific clones but not mAbs against the light chain constant region. Clones identified positive to the immunogen and KLH were […]. Those found positive to the immunogen but not to the non-family member Id protein or KLH were tittered on the immunogen. In addition to normalizing for different binding affinities and concentrations, each hybridoma supernatant was titered on the fully human form of the Id protein used as the immunogen(s) for the V regions. The titer or dilution resulting in an ELISA absorbance of 2.5 to 3 OD after 30 min. incubation time was then used. Hybridoma specificity was determined by screening against available Id proteins expressing the same HV and KV or LV as well as different HV, KV and LV. The final ELISA results are expressed as follows: 0 (<0.5 OD), 1 (0.5-1.0 OD), or 4 (1-4 OD). Positive hybridoma supernatants are categorized according to specificity: anti-Id, anti-constant region (HC, KC or LC), or V region (HV, KV, LV family or family member).
(§2) In general, the fully human Id protein or proteins containing the immunogen V regions were coated onto 96-well ELISA plates at 2.5-5 ug/mL in carbonate buffer pH 9.6 and incubated at 4° C. for up to 14 days. On the day of the ELISA, plates were brought to RT and blocked with Tris-Tween-20, pH 7.6 for 15-60 min. at RT. Following a NaCl and Triton X-100 wash, diluted hybridoma cell culture supernatants were incubated overnight at 4° C. Hybridoma supernatant dilutions ranged from 1:2 to 1:25 and were prepared in PBS with 5% BSA. Plates were washed and incubated with HRP-conjugated goat anti-mouse IgG-specific detecting antibody. A chromogenic substrate (TMB) was used to measure the amount of mouse antibody bound to each well. The reaction was stopped at or before 30 minutes with IN H2SO4 and plates were read immediately. Absorbency readings at 450 nm ranging between 0-4 OD and using Molecular Devices plate reader and SOFTMAX PRO software.

787 = molecular target: T2, 787; assay: ELISA; design: key to grade: 0 = <0.5 OD, 1 = 0.5-1.0 OD, 4 = 1-4 OD
T2 construct: also called PIN787
Text: as §1, §2

647 = molecular target: T3, 647; assay: ELISA; design: key to grade: 0 = <0.5 OD, 1 = 0.5-1.0 OD, 4 = 1-4 OD
T3 construct: fully human Id protein; also called PIN647
Text: as §1, §2

604 = molecular target: T4, 604; assay: ELISA; design: key to grade: 0 = <0.5 OD, 1 = 0.5-1.0 OD, 4 = 1-4 OD
T4 construct: H4-34 L2-8; also called PIN604
Text: as §1, §2

625 = molecular target: T5, 625; assay: ELISA; design: key to grade: 0 = <0.5 OD, 1 = 0.5-1.0 OD, 4 = 1-4 OD
T5 construct: H4-61 L2-8; also called PIN625
Text: as §1, §2

710 = molecular target: T6, 710; assay: ELISA; design: key to grade: 0 = <0.5 OD, 1 = 0.5-1.0 OD, 4 = 1-4 OD
T6 construct: H1-8 L2-8; also called PIN710
Text: as §1, §2

552 = molecular target: T7, 552; assay: ELISA; design: key to grade: 0 = <0.5 OD, 1 = 0.5-1.0 OD, 4 = 1-4 OD
T7 construct: H1-18 L2-8; also called PIN552
Text: as §1, §2

746 = molecular target: T8, 746; assay: ELISA; design: key to grade: 0 = <0.5 OD, 1 = 0.5-1.0 OD, 4 = 1-4 OD
T8 construct: H4-39 L2-8; also called PIN746
Text: as §1, §2

662 = molecular target: T9, 662; assay: ELISA; design: key to grade: 0 = <0.5 OD, 1 = 0.5-1.0 OD, 4 = 1-4 OD
T9 construct: fully human Id protein; also called PIN662
Text: as §1, §2

559 = molecular target: T10, 559; assay: ELISA; design: key to grade: 0 = <0.5 OD, 1 = 0.5-1.0 OD, 4 = 1-4 OD
T10 construct: H3-15 L2-23; also called PIN559
Text: as §1, §2

[1] = molecular target: T11, PIN574 fully human Id protein (HV4-39 / LV1-40) (human); assay: ELISA; design: key to grade: 0 = <0.5 OD, 1 = 0.5-1.0 OD, 4 = 1-4 OD
T11 construct: Recombinant patient-derived idiotype immunoglobulin used as antigen, fully human form; also called Immunogen (for 20H5); not shown: human immunoglobulin heavy chain constant region, isotype G3 (HCG3); human immunoglobulin lambda light chain constant region (LC)
Text: as §1, §2

[2] = molecular target: T12, PIN149 fully human Id protein (HV3-23 / KV4-1) (human); assay: SPR (BIACORE 2000); mAb captured on anti-mouse surface, fully human Id protein as analyte
T12 construct: Recombinant patient-derived idiotype immunoglobulin used as antigen; also called PIN149 Id protein; Immunogen (for 3C9, 6C9, 10H7, 15E1); not shown: human immunoglobulin heavy chain constant region, isotype G3 (HCG3); human immunoglobulin kappa light chain constant region (KC)
Protocol: (§3) Binding constants were also determined for three of the sequenced clones (3C9, 10H7, and 20H5), as well as for two additional clones (6C9 and 15E1). The association and disassociation rates were measured by surface plasmon resonance using a BIACORE 2000 machine.
(§4) In addition, based on ELISA results, PIN185 was used as a positive control Id protein for 10H7 and 15E1 and a negative control Id protein for 3C9 and 6C9 and PIN149 was used as a non-binding Id protein for 20H5. Each mAb was captured onto an anti-mouse surface and tested for binding to the fully human Id protein. Following the mAb capture phase of the assay for the (@2 ug/ml), the fully human Id proteins were all diluted to a starting concentration of 250 nM and tested in a three fold dilution series. Each concentration was tested in duplicate. The running buffer contained PBS plus 0.005% tween-20 and 0.1 mg/ml BSA as a carrier. Binding data were collected at 25° C. […] The other data sets all fit well to a single site interaction model.

[3] = molecular target: T11, PIN574 fully human Id protein (HV4-39 / …); assay: SPR (BIACORE 2000); mAb captured on anti-mouse surface, fully human Id protein as analyte, 25 C
Protocol: as §3, §4

T11 sequence (VH, as listed by the source, chain 1 of 2): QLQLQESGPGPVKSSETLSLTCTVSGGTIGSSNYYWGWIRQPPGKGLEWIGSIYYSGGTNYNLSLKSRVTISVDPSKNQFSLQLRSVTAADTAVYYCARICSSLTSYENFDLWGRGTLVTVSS
T11 sequence (VL, as listed by the source, chain 2 of 2): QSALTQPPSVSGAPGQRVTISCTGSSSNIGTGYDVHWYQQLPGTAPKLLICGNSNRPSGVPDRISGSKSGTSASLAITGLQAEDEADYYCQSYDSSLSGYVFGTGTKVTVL
T9 sequence (heavy, as listed by the source): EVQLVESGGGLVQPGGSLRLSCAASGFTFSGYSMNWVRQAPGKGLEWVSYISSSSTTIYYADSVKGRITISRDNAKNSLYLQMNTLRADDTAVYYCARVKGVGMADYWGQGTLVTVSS
T3 sequence (VH, as listed by the source, chain 1 of 2): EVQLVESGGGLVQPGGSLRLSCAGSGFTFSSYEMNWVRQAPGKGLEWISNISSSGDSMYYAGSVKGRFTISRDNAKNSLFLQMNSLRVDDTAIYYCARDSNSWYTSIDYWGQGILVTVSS
T3 sequence (VL, as listed by the source, chain 2 of 2): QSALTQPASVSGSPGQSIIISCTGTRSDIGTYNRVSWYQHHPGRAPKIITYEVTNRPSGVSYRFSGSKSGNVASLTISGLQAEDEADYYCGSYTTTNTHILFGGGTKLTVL
T1 sequence (VH, as listed by the source, chain 1 of 2): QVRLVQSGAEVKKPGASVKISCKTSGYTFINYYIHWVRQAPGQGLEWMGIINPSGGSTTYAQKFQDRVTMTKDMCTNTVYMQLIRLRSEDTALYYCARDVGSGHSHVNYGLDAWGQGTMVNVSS
T1 sequence (V domain, as listed by the source, chain 2 of 2): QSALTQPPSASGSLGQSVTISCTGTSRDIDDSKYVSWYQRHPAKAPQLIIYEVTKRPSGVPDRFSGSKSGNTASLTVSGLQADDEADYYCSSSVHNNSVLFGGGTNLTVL
T12 sequence (VH, as listed by the source, chain 1 of 2): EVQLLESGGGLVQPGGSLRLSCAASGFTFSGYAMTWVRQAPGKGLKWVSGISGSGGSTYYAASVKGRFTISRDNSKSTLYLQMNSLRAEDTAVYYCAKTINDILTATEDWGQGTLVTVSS
T12 sequence (VL, as listed by the source, chain 2 of 2): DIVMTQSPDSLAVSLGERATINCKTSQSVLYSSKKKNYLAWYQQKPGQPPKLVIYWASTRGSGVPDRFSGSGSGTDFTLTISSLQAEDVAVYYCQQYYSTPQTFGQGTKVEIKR

grade 116	grade 787	binding result 647	grade 604	grade 625	grade 710	grade 552	grade 746	grade 662	grade 559	binding result [1]	binding result [2]	Kd [3]	koff [3]	kon [3]	Binder
4	1	no binding	4	4	4	4	4	4	4	no binding	–	–	–	–	mAb clone 15E8 (antibody, V domains shown, Mouse hybridoma mAb, fusion 16 (immunogen PIN116)) VH: QVQLQQPGAELVMPGASVKMSCKASGYTFTDYWMHWVKQRPGQGLEWIGTIDTSDSYTNYNQKFKGKATLTVDESSSTAYMQLSSLTSEDSAVYYCVRWKKYGNYFFDYWGQGTTLTVSS VL: DIVMTQSHKFMSTSVGDRVSITCKASQDVNTAVAWYQQKPGQSPKLLIYWASTRHTGVPDRFTGSGSGTDFSLTISSVQAEDLGLYYCQQCYSTPYAFGGGTKLEIKR
–	–	–	–	–	–	–	–	–	–	–	no binding	1.92 nM	0.000146 s⁻¹	75900 M⁻¹ s⁻¹	mAb clone 20H5 (antibody, V domains shown, Mouse hybridoma mAb, fusion 10 (immunogen fully human PIN574 Id protein)) VH: QVQLKESGPDLVAPSQSLSITCTVSGFSLTSYGVHWVRQPPGKGLEWLVVIWSDGSTTNNSPLKSRLSISKDNSKSQVFLKMNSLQTDDTAMYYCARHWGTTVVDAMDYWGQGTSVTVSS VL: DIQMTQTTSSLSASLGDRVIISCRASQDIRNYLNWYQQKPDGTVKLLIYYTSQLHSGVPSRFSGSGSGTDYSLTINNLSEQEDIATYFCQQYDTLPWTFGGGTKLEIKR
